Earlier results on two molecules are cited in patent US20050255458A1, “Drug discovery assays based on the biology of chronic disease” (priority 2002, published 2005).

The test system of data set [1] is reverse transmigration of PBMC across HUVEC.
Data set [2] relates to anagen hair follicles. The following applies: Philpott 1996.

B1: soluble TF: soluble tissue factor (protein, UniProt P13726 33-251, looked up)
extracellular domain: SGTTNTVAAYNLTWKSTNFKTILEWEPKPVNQVYTVQISTKSGDWKSKCFYTTDTECDLTDEIVKDVKQTYLARVFSYPAGNVESTGSAGEPLYENSPEFTPYLETNLGQPTIQSFEQVGTKVNVTVEDERTLVRRNNTFLSLRDVFGKDLIYTLYYWKSSSSGKKTAKTNTNEFLIDVDKGENYCFSVQAVIPSRTVNRKSTDSPVECMGQEKGEFRE
modifications: extracellular domain
notes: soluble tissue factor
Take B1: the “inhibition of reverse transendothelial migration” value in data set [1] is on record as 69±2%.

B2: IL-1α: interleukin 1α cytokine (protein, UniProt P01583 113-271, looked up)
Interleukin-1 alpha: SAPFSFLSNVKYNFMRIIKYEFILNDALNQSIIRANDQYLTAAALHNLDEAVKFDMGAYKSSKDDAKITVILRISKTQLYVTAQDEDQPVLLKEMPEIPKTITGSETNLLFFWETHGTKNYFTSVAHPNLFIATKQDYWVCLAGGPPSITDFQILENQA
As to B2, in data set [2], the scalp hair growth entry was “inhibition of scalp hair growth”.
